Data published in paper PMC6712418, “Distinct Binding Interactions of α5β1-Integrin and Proteoglycans with Fibronectin” (Biophysical Journal, 2019).
One block for each binder: values may come before it.

Target: T1, Bovine plasma fibronectin (bovine, UniProt P07589 33-2478)
T1 construct: fibronectin, bovine, from plasma; about 0.5 MDa, two similar subunits attached through disulfide linkages; Adsorbed unmodified on a gold surface from 20 ug/mL in PBS; source: bought: Thermo Fisher Scientific
Assay: dynamic single-molecule force spectroscopy (AFM); fibronectin adsorbed on a gold surface; integrin or proteoglycan tethered by PEG to the AFM tip; PBS; trigger force 500 pN, no dwell; retraction speed varied; Bell-Evans fit of rupture force against ln(loading rate), fm = 10^7 s^-1 assumed
Conditions: both partners purified

T1 sequence (P07589 33-2478): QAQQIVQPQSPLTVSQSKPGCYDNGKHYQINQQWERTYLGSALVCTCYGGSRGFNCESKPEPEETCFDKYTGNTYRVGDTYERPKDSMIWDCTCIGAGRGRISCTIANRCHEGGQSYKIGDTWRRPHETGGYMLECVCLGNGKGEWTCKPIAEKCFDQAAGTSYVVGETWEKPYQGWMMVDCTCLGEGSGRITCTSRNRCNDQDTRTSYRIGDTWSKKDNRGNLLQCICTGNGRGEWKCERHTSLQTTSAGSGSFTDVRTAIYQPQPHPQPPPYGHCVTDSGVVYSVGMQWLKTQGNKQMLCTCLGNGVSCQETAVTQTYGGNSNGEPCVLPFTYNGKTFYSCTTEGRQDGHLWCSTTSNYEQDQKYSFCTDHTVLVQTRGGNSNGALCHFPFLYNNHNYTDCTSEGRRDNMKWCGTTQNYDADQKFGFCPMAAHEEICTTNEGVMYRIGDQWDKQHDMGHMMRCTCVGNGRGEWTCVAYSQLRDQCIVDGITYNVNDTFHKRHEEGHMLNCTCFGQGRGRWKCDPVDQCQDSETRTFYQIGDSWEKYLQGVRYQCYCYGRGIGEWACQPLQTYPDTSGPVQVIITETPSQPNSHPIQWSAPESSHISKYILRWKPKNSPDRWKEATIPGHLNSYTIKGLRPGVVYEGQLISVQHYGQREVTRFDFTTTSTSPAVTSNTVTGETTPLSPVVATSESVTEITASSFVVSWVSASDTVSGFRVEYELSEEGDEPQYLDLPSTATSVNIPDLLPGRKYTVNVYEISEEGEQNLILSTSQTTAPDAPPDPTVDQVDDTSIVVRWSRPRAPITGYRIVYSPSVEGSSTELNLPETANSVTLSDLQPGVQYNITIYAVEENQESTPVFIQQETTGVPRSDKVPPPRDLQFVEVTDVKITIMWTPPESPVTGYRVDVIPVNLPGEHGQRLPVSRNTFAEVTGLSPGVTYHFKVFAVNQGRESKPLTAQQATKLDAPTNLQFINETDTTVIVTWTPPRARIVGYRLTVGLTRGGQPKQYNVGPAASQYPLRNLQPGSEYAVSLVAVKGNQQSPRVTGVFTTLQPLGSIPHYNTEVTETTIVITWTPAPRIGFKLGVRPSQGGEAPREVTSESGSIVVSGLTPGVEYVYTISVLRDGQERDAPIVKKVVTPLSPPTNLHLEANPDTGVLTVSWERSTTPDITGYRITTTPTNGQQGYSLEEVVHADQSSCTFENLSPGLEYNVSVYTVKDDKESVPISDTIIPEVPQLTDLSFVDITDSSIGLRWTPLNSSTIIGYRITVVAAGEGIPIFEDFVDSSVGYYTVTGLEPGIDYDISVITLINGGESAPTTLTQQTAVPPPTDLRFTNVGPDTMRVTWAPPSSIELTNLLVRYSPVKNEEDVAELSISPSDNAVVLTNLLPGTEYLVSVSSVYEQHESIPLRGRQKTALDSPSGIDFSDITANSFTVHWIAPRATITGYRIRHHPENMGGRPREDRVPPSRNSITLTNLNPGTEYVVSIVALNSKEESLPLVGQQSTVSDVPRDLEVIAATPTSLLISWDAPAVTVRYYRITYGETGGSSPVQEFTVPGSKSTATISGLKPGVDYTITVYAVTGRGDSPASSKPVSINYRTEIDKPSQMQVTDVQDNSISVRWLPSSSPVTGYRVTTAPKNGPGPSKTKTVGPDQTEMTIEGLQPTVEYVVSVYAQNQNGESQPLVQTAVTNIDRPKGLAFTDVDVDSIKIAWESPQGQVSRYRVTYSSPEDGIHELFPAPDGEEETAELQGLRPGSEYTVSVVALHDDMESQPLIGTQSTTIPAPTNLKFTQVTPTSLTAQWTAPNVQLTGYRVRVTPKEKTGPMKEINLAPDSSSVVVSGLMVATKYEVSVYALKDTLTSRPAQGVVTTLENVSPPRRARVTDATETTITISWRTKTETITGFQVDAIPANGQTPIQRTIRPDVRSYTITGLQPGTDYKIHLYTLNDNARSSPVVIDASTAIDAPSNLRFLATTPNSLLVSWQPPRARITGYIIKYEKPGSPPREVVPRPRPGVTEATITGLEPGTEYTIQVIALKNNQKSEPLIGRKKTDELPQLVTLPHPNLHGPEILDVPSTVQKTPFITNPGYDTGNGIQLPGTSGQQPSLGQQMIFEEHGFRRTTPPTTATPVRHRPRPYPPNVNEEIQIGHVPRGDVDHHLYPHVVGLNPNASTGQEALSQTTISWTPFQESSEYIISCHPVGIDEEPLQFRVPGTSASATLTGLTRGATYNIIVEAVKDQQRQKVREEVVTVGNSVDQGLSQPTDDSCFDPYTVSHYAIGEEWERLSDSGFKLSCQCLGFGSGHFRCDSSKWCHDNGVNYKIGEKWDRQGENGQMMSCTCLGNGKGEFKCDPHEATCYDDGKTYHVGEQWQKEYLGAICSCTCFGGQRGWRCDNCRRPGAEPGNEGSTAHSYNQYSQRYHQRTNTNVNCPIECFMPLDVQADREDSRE

- koff: 2.4 ± 0.4 s⁻¹
B1: Recombinant human syndecan-4 (natural protein, UniProt P31431 19-145, looked up)
chain: ESIRETEVIDPQDLLEGRYFSGALPDDEDVVGPGQESDDFELSGSGDLDDLEDSMIGPEVVHPLVPLDNHIPERAGSGSQVPTEPKKLEENEVIPKRISPVEESEDVSNKVSMSSTVQGSNIFERTE
modifications: heparan sulfate glycosaminoglycan chains (proteoglycan); cysteines bound to the maleimide of an NHS-PEG-Mal linker on the AFM tip
notes: syndecan-4, human, recombinant; No catalogue number printed; The R&D Systems product is probably the extracellular domain (surmised); also called SDC4; source: bought: R&D Systems

- koff: 40 ± 4 s⁻¹
B2: Recombinant human decorin (natural protein, UniProt P07585 31-359, looked up)
chain: DEASGIGPEVPDDRDFEPSLGPVCPFRCQCHLRVVQCSDLGLDKVPKDLPPDTTLLDLQNNKITEIKDGDFKNLKNLHALILVNNKISKVSPGAFTPLVKLERLYLSKNQLKELPEKMPKTLQELRAHENEITKVRKVTFNGLNQMIVIELGTNPLKSSGIENGAFQGMKKLSYIRIADTNITSIPQGLPPSLTELHLDGNKISRVDAASLKGLNNLAKLGLSFNSISAVDNGSLANTPHLRELHLDNNKLTRVPGGLAEHKYIQVVYLHNNNISVVGSSDFCPPGHNTKKASYSGVSLFSNPVQYWEIQPSTFRCVYVRSAIQLGNYK
modifications: a single chondroitin or dermatan sulfate GAG chain attached at the N-terminus (proteoglycan); cysteines bound to the maleimide of an NHS-PEG-Mal linker on the AFM tip
notes: decorin, human, recombinant; 42-kDa core protein; No catalogue number printed; The GAG chain is told of decorin in general; source: bought: R&D Systems
